B1: 401.11.87 (antibody, name in Kabat numbering, V domains shown)
VH: QVQLVGSGGGLVKPGRSLRLSCAASGFTFDDYAMHWVRQAPGKGLEWVATIIWNSAIIGYADSVKGRFIVSRDNAKNSLYLQMNSLRAEDMALYYCAKDMCSSSSCPDGYFDSWGQGTLVTVSS
VL: DIQMTQSPSSVSASVGDRVTITCRASQHISSWLAWYQQKPGKAPNLLIYAASSLQSGVSSRFSGSGSGTDFTLTISSLQPEDFATYYCQQANRFPLTFGGGTKLEIKR
B2: 401.11.119 (antibody, name in Kabat numbering, V domains shown)
VH: QVQLVGSGGGLVKPGRSLRLSCAASGFTFDDYAMHWVRQAPGKGLEWVATIIWNSAIIGYADSVKGRFIVSRDNAKNSLYLQMNSLRAEDMALYYCAKDMCSSSGCPDAYFDSWGQGTLVTVSS
VL: DIQMTQSPSSVSASVGDRVTITCRASQHISSWLAWYQQKPGKAPNLLIYAASSLQSGVSSRFSGSGSGTDFTLTISSLQPEDFATYYCQQANRFPLTFGGGTKLEIKR
B3: 401.11.103 (antibody, name in Kabat numbering, V domains shown)
VH: QVQLVGSGGGLVKPGRSLRLSCAASGFTFDDYAMHWVRQAPGKGLEWVATIIWNSAIIGYADSVKGRFIVSRDNAKNSLYLQMNSLRAEDMALYYCAKDMCSSSGCGDGYFDSWGQGTLVTVSS
VL: DIQMTQSPSSVSASVGDRVTITCRASQHISSWLAWYQQKPGKAPNLLIYAASSLQSGVSSRFSGSGSGTDFTLTISSLQPEDFATYYCQQANRFPLTFGGGTKLEIKR
B4: 401.11.113 (antibody, name in Kabat numbering, V domains shown)
VH: QVQLVGSGGGLVKPGRSLRLSCAASGFTFDDYAMHWVRQAPGKGLEWVATIIWNSAIIGYADSVKGRFIVSRDNAKNSLYLQMNSLRAEDMALYYCAKDMCSSSGCPGGYFDSWGQGTLVTVSS
VL: DIQMTQSPSSVSASVGDRVTITCRASQHISSWLAWYQQKPGKAPNLLIYAASSLQSGVSSRFSGSGSGTDFTLTISSLQPEDFATYYCQQANRFPLTFGGGTKLEIKR
B5: 401.11.112 (antibody, name in Kabat numbering, V domains shown)
VH: QVQLVGSGGGLVKPGRSLRLSCAASGFTFDDYAMHWVRQAPGKGLEWVATIIWNSAIIGYADSVKGRFIVSRDNAKNSLYLQMNSLRAEDMALYYCAKDMCSSSGCPSGYFDSWGQGTLVTVSS
VL: DIQMTQSPSSVSASVGDRVTITCRASQHISSWLAWYQQKPGKAPNLLIYAASSLQSGVSSRFSGSGSGTDFTLTISSLQPEDFATYYCQQANRFPLTFGGGTKLEIKR
B6: 401.11.122 (antibody, name in Kabat numbering, V domains shown)
VH: QVQLVGSGGGLVKPGRSLRLSCAASGFTFDDYAMHWVRQAPGKGLEWVATIIWNSAIIGYADSVKGRFIVSRDNAKNSLYLQMNSLRAEDMALYYCAKDMCSSSGCPDKYFDSWGQGTLVTVSS
VL: DIQMTQSPSSVSASVGDRVTITCRASQHISSWLAWYQQKPGKAPNLLIYAASSLQSGVSSRFSGSGSGTDFTLTISSLQPEDFATYYCQQANRFPLTFGGGTKLEIKR
B7: 401.11.115 (antibody, name in Kabat numbering, V domains shown)
VH: QVQLVGSGGGLVKPGRSLRLSCAASGFTFDDYAMHWVRQAPGKGLEWVATIIWNSAIIGYADSVKGRFIVSRDNAKNSLYLQMNSLRAEDMALYYCAKDMCSSSGCPYGYFDSWGQGTLVTVSS
VL: DIQMTQSPSSVSASVGDRVTITCRASQHISSWLAWYQQKPGKAPNLLIYAASSLQSGVSSRFSGSGSGTDFTLTISSLQPEDFATYYCQQANRFPLTFGGGTKLEIKR
B8: 401.11.102 (antibody, name in Kabat numbering, V domains shown)
VH: QVQLVGSGGGLVKPGRSLRLSCAASGFTFDDYAMHWVRQAPGKGLEWVATIIWNSAIIGYADSVKGRFIVSRDNAKNSLYLQMNSLRAEDMALYYCAKDMCSSSGCTDGYFDSWGQGTLVTVSS
VL: DIQMTQSPSSVSASVGDRVTITCRASQHISSWLAWYQQKPGKAPNLLIYAASSLQSGVSSRFSGSGSGTDFTLTISSLQPEDFATYYCQQANRFPLTFGGGTKLEIKR
B9: 401.11.101 (antibody, name in Kabat numbering, V domains shown)
VH: QVQLVGSGGGLVKPGRSLRLSCAASGFTFDDYAMHWVRQAPGKGLEWVATIIWNSAIIGYADSVKGRFIVSRDNAKNSLYLQMNSLRAEDMALYYCAKDMCSSSGCSDGYFDSWGQGTLVTVSS
VL: DIQMTQSPSSVSASVGDRVTITCRASQHISSWLAWYQQKPGKAPNLLIYAASSLQSGVSSRFSGSGSGTDFTLTISSLQPEDFATYYCQQANRFPLTFGGGTKLEIKR
B10: 401.11.117 (antibody, name in Kabat numbering, V domains shown)
VH: QVQLVGSGGGLVKPGRSLRLSCAASGFTFDDYAMHWVRQAPGKGLEWVATIIWNSAIIGYADSVKGRFIVSRDNAKNSLYLQMNSLRAEDMALYYCAKDMCSSSGCPQGYFDSWGQGTLVTVSS
VL: DIQMTQSPSSVSASVGDRVTITCRASQHISSWLAWYQQKPGKAPNLLIYAASSLQSGVSSRFSGSGSGTDFTLTISSLQPEDFATYYCQQANRFPLTFGGGTKLEIKR
B11: 401.11.88 (antibody, name in Kabat numbering, V domains shown)
VH: QVQLVGSGGGLVKPGRSLRLSCAASGFTFDDYAMHWVRQAPGKGLEWVATIIWNSAIIGYADSVKGRFIVSRDNAKNSLYLQMNSLRAEDMALYYCAKDMCSSSACPDGYFDSWGQGTLVTVSS
VL: DIQMTQSPSSVSASVGDRVTITCRASQHISSWLAWYQQKPGKAPNLLIYAASSLQSGVSSRFSGSGSGTDFTLTISSLQPEDFATYYCQQANRFPLTFGGGTKLEIKR
B12: 401.11.111 (antibody, name in Kabat numbering, V domains shown)
VH: QVQLVGSGGGLVKPGRSLRLSCAASGFTFDDYAMHWVRQAPGKGLEWVATIIWNSAIIGYADSVKGRFIVSRDNAKNSLYLQMNSLRAEDMALYYCAKDMCSSSGCPRGYFDSWGQGTLVTVSS
VL: DIQMTQSPSSVSASVGDRVTITCRASQHISSWLAWYQQKPGKAPNLLIYAASSLQSGVSSRFSGSGSGTDFTLTISSLQPEDFATYYCQQANRFPLTFGGGTKLEIKR
B13: 401.11.123 (antibody, name in Kabat numbering, V domains shown)
VH: QVQLVGSGGGLVKPGRSLRLSCAASGFTFDDYAMHWVRQAPGKGLEWVATIIWNSAIIGYADSVKGRFIVSRDNAKNSLYLQMNSLRAEDMALYYCAKDMCSSSGCPDRYFDSWGQGTLVTVSS
VL: DIQMTQSPSSVSASVGDRVTITCRASQHISSWLAWYQQKPGKAPNLLIYAASSLQSGVSSRFSGSGSGTDFTLTISSLQPEDFATYYCQQANRFPLTFGGGTKLEIKR
B14: 401.11.104 (antibody, name in Kabat numbering, V domains shown)
VH: QVQLVGSGGGLVKPGRSLRLSCAASGFTFDDYAMHWVRQAPGKGLEWVATIIWNSAIIGYADSVKGRFIVSRDNAKNSLYLQMNSLRAEDMALYYCAKDMCSSSGCLDGYFDSWGQGTLVTVSS
VL: DIQMTQSPSSVSASVGDRVTITCRASQHISSWLAWYQQKPGKAPNLLIYAASSLQSGVSSRFSGSGSGTDFTLTISSLQPEDFATYYCQQANRFPLTFGGGTKLEIKR
B15: 401.11.108 (antibody, name in Kabat numbering, V domains shown)
VH: QVQLVGSGGGLVKPGRSLRLSCAASGFTFDDYAMHWVRQAPGKGLEWVATIIWNSAIIGYADSVKGRFIVSRDNAKNSLYLQMNSLRAEDMALYYCAKDMCSSSGCRDGYFDSWGQGTLVTVSS
VL: DIQMTQSPSSVSASVGDRVTITCRASQHISSWLAWYQQKPGKAPNLLIYAASSLQSGVSSRFSGSGSGTDFTLTISSLQPEDFATYYCQQANRFPLTFGGGTKLEIKR
B16: 401.11.89 (antibody, name in Kabat numbering, V domains shown)
VH: QVQLVGSGGGLVKPGRSLRLSCAASGFTFDDYAMHWVRQAPGKGLEWVATIIWNSAIIGYADSVKGRFIVSRDNAKNSLYLQMNSLRAEDMALYYCAKDMCSSSDCPDGYFDSWGQGTLVTVSS
VL: DIQMTQSPSSVSASVGDRVTITCRASQHISSWLAWYQQKPGKAPNLLIYAASSLQSGVSSRFSGSGSGTDFTLTISSLQPEDFATYYCQQANRFPLTFGGGTKLEIKR
B17: 401.11.118 (antibody, name in Kabat numbering, V domains shown)
VH: QVQLVGSGGGLVKPGRSLRLSCAASGFTFDDYAMHWVRQAPGKGLEWVATIIWNSAIIGYADSVKGRFIVSRDNAKNSLYLQMNSLRAEDMALYYCAKDMCSSSGCPDSYFDSWGQGTLVTVSS
VL: DIQMTQSPSSVSASVGDRVTITCRASQHISSWLAWYQQKPGKAPNLLIYAASSLQSGVSSRFSGSGSGTDFTLTISSLQPEDFATYYCQQANRFPLTFGGGTKLEIKR
B18: 401.11.90 (antibody, name in Kabat numbering, V domains shown)
VH: QVQLVGSGGGLVKPGRSLRLSCAASGFTFDDYAMHWVRQAPGKGLEWVATIIWNSAIIGYADSVKGRFIVSRDNAKNSLYLQMNSLRAEDMALYYCAKDMCSSSKCPDGYFDSWGQGTLVTVSS
VL: DIQMTQSPSSVSASVGDRVTITCRASQHISSWLAWYQQKPGKAPNLLIYAASSLQSGVSSRFSGSGSGTDFTLTISSLQPEDFATYYCQQANRFPLTFGGGTKLEIKR
B19: 401.11.107 (antibody, name in Kabat numbering, V domains shown)
VH: QVQLVGSGGGLVKPGRSLRLSCAASGFTFDDYAMHWVRQAPGKGLEWVATIIWNSAIIGYADSVKGRFIVSRDNAKNSLYLQMNSLRAEDMALYYCAKDMCSSSGCYDGYFDSWGQGTLVTVSS
VL: DIQMTQSPSSVSASVGDRVTITCRASQHISSWLAWYQQKPGKAPNLLIYAASSLQSGVSSRFSGSGSGTDFTLTISSLQPEDFATYYCQQANRFPLTFGGGTKLEIKR
B20: 401.11.110 (antibody, name in Kabat numbering, V domains shown)
VH: QVQLVGSGGGLVKPGRSLRLSCAASGFTFDDYAMHWVRQAPGKGLEWVATIIWNSAIIGYADSVKGRFIVSRDNAKNSLYLQMNSLRAEDMALYYCAKDMCSSSGCPKGYFDSWGQGTLVTVSS
VL: DIQMTQSPSSVSASVGDRVTITCRASQHISSWLAWYQQKPGKAPNLLIYAASSLQSGVSSRFSGSGSGTDFTLTISSLQPEDFATYYCQQANRFPLTFGGGTKLEIKR
B21: 401.11.116 (antibody, name in Kabat numbering, V domains shown)
VH: QVQLVGSGGGLVKPGRSLRLSCAASGFTFDDYAMHWVRQAPGKGLEWVATIIWNSAIIGYADSVKGRFIVSRDNAKNSLYLQMNSLRAEDMALYYCAKDMCSSSGCPFGYFDSWGQGTLVTVSS
VL: DIQMTQSPSSVSASVGDRVTITCRASQHISSWLAWYQQKPGKAPNLLIYAASSLQSGVSSRFSGSGSGTDFTLTISSLQPEDFATYYCQQANRFPLTFGGGTKLEIKR
B22: 401.11.109 (antibody, name in Kabat numbering, V domains shown)
VH: QVQLVGSGGGLVKPGRSLRLSCAASGFTFDDYAMHWVRQAPGKGLEWVATIIWNSAIIGYADSVKGRFIVSRDNAKNSLYLQMNSLRAEDMALYYCAKDMCSSSGCWDGYFDSWGQGTLVTVSS
VL: DIQMTQSPSSVSASVGDRVTITCRASQHISSWLAWYQQKPGKAPNLLIYAASSLQSGVSSRFSGSGSGTDFTLTISSLQPEDFATYYCQQANRFPLTFGGGTKLEIKR

The binders below were run against T1, Human CD1d/β2M (human, UniProt P15813 20-301; P61769 21-119) (assay: SPR, transfection supernatant).
T1 construct: also called hCD1d; recombinant human CD1d
Binder B1 has a Kd of 7.13 nM.
Binder B2 has a Kd of 0.877 nM.
For B3, the Kd was under 0.01 nM.
Work on B4 yielded a Kd of 0.679 nM.
B5 showed a Kd of 2.43 nM.
B6 gave a Kd of 0.13 nM.
Binder B7 has a Kd of 0.667 nM.
For B8, the Kd was 0.457 nM.
Binder B9 has a Kd of under 0.01 nM.
Work on B10 yielded a Kd of 1.33 nM.
For B11, the Kd was 1.89 nM.
B12 was tested, and the Kd was under 0.01 nM.
Binder B13 has a Kd of 0.239 nM.
B14 showed a Kd of 0.487 nM.
With B15 the Kd was under 0.01 nM.
B16 was tested, and the Kd was 5.3 nM.
For B17, the Kd was under 0.01 nM.
B18 was tested, and the Kd was under 0.01 nM.
For B19, the Kd was 0.996 nM.
B20 was tested, and the Kd was 0.247 nM.
In the case of B21, the Kd is reported as 37.7 nM.
B22: no binding.

— patent US20140286957A1 (Teva, published 2014)
